# Measured values taken from patent publication US20090130676A1 (GENERAL HOSPITAL, published 2009).
# B1: pep14 (FIG. 4B numbering), thioredoxin prey fusion (designed binder, not shown: large carriers)
# chain: MSDKIIHLTDDSFDTDVLKADGAILVDFWAEWCGPWSPELLRAMVAFRWLLERRPGPCKMIAPILDEIADEYQGKLTVAKLNIDQNPGTAPKYGIRGIPTLLLFKNGEVAATKVGALSKGQLKEFLDANLA
# B2: pep12 (FIG. 4B numbering), thioredoxin prey fusion (designed binder, not shown: large carriers)
# chain: MSDKIIHLTDDSFDTDVLKADGAILVDFWAEWCGPRPLTGRWVVWGRRHEECGLTGPCKMIAPILDEIADEYQGKLTVAKLNIDQNPGTAPKYGIRGIPTLLLFKNGEVAATKVGALSKGQLKEFLDANLA
# B3: pep9 (FIG. 4B numbering), thioredoxin prey fusion (designed binder, not shown: large carriers)
# chain: MSDKIIHLTDDSFDTDVLKADGAILVDFWAEWCGPQQRFVFSPSWFTCAGTSDFWGPEPLFDWTRDGPCKMIAPILDEIADEYQGKLTVAKLNIDQNPGTAPKYGIRGIPTLLLFKNGEVAATKVGALSKGQLKEFLDANLA
# B4: pep6 (FIG. 4B numbering), thioredoxin prey fusion (designed binder, not shown: large carriers)
# chain: MSDKIIHLTDDSFDTDVLKADGAILVDFWAEWCGPRVKLGYSFWAQSLLRCISVGGPCKMIAPILDEIADEYQGKLTVAKLNIDQNPGTAPKYGIRGIPTLLLFKNGEVAATKVGALSKGQLKEFLDANLA
# B5: pep7 (FIG. 4B numbering), thioredoxin prey fusion (designed binder, not shown: large carriers)
# chain: MSDKIIHLTDDSFDTDVLKADGAILVDFWAEWCGPQLYAGCYLGVVIASSLSIRVGPCKMIAPILDEIADEYQGKLTVAKLNIDQNPGTAPKYGIRGIPTLLLFKNGEVAATKVGALSKGQLKEFLDANLA
# B6: pep13 (FIG. 4B numbering), thioredoxin prey fusion (designed binder, not shown: large carriers)
# chain: MSDKIIHLTDDSFDTDVLKADGAILVDFWAEWCGPPVCCMMYGHRTAPHSVFNVDGPCKMIAPILDEIADEYQGKLTVAKLNIDQNPGTAPKYGIRGIPTLLLFKNGEVAATKVGALSKGQLKEFLDANLA
# B7: peptide 13 (FIG. 3A/3B numbering), thioredoxin prey fusion (designed binder, not shown: large carriers; small tags and cut ends)
# chain: MSDKIIHLTDDSFDTDVLKADGAILVDFWAEWCGPSVRMRYGIDAFFDLGGLLHGGPCKMIAPILDEIADEYQGKLTVAKLNIDQNPGTAPKYGIRGIPTLLLFKNGEVAATKVGALSKGQLKEFLDANLA
# modifications: peptide loop embedded in the thioredoxin active-site loop between Cys33 and Cys36 (may form a disulfide)
# B8: Cdk7 (enzyme, not shown: small tags and cut ends)
# chain: ALDVKSRAKRYEKLDFLGEGQFATVYKARDKNTNQIVAIKKIKLGHRSEAKDGINRTALREIKLLQELSHPNIIGLLDAFGHKSNISLVFDFMETDLEVIIKDNSLVLTPSHIKAYMLMTLQGLEYLHQHWILHRDLKPNNLLLDENGVLKLADFGLAKSFGSPNRAYTHQVVTRWYRAPELLFGARMYGVGVDMWAVGCILAELLLRVPFLPGDSDLDQLTRIFETLGTPTEEQWPDMCSLPDYVTFKSFPGIPLHHIFSAAGDDLLDLIQGLFLFNPCARITATQALKMKYFSNRPGPTPGCQLPRPNCPVETLKEQSNPALAIKRKRTEALEQGGLPKKLIF
# notes: Bait strain named only on the sheet
# B9: pep10 (designed binder, not shown: small tags and cut ends)
# chain: MSDKIIHLTDDSFDTDVLKADGAILVDFWAEWCGPQVWSLWALGWRWLRRYGWNMGPCKMIAPILDEIADEYQGKLTVAKLNIDQNPGTAPKYGIRGIPTLLLFKNGEVAATKVGALSKGQLKEFLDANLA
# modifications: Peptide loop sits in the TrxA active-site loop; flanking Cys33 and Cys36 may form a disulfide
# notes: The purified His6 form is m44
# B10: pep8 (designed binder, not shown: large carriers; small tags and cut ends)
# chain: MSDKIIHLTDDSFDTDVLKADGAILVDFWAEWCGPYSFVHHGFFNFRVSWREMLAGPCKMIAPILDEIADEYQGKLTVAKLNIDQNPGTAPKYGIRGIPTLLLFKNGEVAATKVGALSKGQLKEFLDANLA
# modifications: peptide loop embedded in the thioredoxin active-site loop between Cys33 and Cys36 (may form a disulfide)
# notes: The purified His6 form is m43
# B11: pep2 (designed binder, not shown: small tags and cut ends)
# chain: MSDKIIHLTDDSFDTDVLKADGAILVDFWAEWCGPLVCKSYRLDWEAGALFRSLFGPCKMIAPILDEIADEYQGKLTVAKLNIDQNPGTAPKYGIRGIPTLLLFKNGEVAATKVGALSKGQLKEFLDANLA
# modifications: Peptide loop sits in the TrxA active-site loop; flanking Cys33 and Cys36 may form a disulfide
# notes: the purified His6 form is m40
# B12: pep5 (designed binder, not shown: large carriers; small tags and cut ends)
# chain: B7 chain
# modifications: peptide loop embedded in the thioredoxin active-site loop between Cys33 and Cys36 (may form a disulfide)
# notes: the purified His6 form is m42
# B13: pep11 (designed binder, not shown: small tags and cut ends)
# chain: MSDKIIHLTDDSFDTDVLKADGAILVDFWAEWCGPWRRMELDAEIRWVKPISPLEGPCKMIAPILDEIADEYQGKLTVAKLNIDQNPGTAPKYGIRGIPTLLLFKNGEVAATKVGALSKGQLKEFLDANLA
# modifications: Peptide loop sits in the TrxA active-site loop; flanking Cys33 and Cys36 may form a disulfide
# notes: The purified His6 form is m45
# Molecular target: T1, Cdk4 (Homo sapiens (Human), UniProt P11802 2-303)
# T1 construct: construct not described
# T1 sequence (P11802 2-303 limits assumed): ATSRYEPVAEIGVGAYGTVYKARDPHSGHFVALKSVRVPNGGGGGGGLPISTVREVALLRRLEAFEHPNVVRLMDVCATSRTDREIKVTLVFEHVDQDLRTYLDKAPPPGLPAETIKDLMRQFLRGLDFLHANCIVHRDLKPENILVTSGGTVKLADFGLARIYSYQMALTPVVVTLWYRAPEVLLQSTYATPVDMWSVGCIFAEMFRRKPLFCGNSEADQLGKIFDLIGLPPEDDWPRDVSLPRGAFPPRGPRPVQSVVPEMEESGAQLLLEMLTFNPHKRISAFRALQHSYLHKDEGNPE
# Test: yeast interaction trap mating assay (FIG. 4A)
row,Binder,binding result
1,B1,no binding
2,B2,no binding
3,B3,no binding
4,B4,no binding
5,B5,no binding
6,B6,no binding

# Molecular target: human Cdk2 expressed from a plasmid in cdc28ts yeast (human, UniProt P24941 1-298)
# Test: cell-based or functional assay
row,Binder,fold decrease in plating efficiency of a Cdk2-dependent cdc28-1N yeast strain at the restrictive temperature
1,B7,10 fold

# Molecular target: B4
# Test: yeast interaction trap mating assay, lacZ reporter on Xgal
row,Binder,binding result
1,B8,no binding

# Molecular target: B1
# Test: as above
row,Binder,binding result
1,B8,no binding

# Molecular target: T2, LexA-Cdk3 bait (human, UniProt Q00526 1-305, limits assumed)
# T2 construct: also called human Cdk3; not shown: bacterial LexA protein
# T2 sequence (Q00526 whole entry): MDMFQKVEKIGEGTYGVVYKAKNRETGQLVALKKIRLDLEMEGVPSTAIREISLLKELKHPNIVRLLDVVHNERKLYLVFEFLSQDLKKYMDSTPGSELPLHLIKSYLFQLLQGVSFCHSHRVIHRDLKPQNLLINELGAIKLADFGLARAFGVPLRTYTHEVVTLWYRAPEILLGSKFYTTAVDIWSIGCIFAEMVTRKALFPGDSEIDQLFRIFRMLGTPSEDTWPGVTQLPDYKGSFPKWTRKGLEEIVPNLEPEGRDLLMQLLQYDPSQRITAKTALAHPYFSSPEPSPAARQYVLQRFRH
# Test: as above
row,Binder,binding result
1,B9,no binding
2,B1,no binding
3,B2,no binding
4,B10,no binding
5,B3,no binding
6,B11,no binding
7,B4,no binding
8,B12,binds
9,B13,no binding
10,B5,no binding
11,B6,no binding

# Molecular target: T3, CDC28 (Saccharomyces cerevisiae (strain ATCC …, UniProt P00546 1-298))
# T3 construct: bait construct not described
# T3 sequence (P00546 whole entry): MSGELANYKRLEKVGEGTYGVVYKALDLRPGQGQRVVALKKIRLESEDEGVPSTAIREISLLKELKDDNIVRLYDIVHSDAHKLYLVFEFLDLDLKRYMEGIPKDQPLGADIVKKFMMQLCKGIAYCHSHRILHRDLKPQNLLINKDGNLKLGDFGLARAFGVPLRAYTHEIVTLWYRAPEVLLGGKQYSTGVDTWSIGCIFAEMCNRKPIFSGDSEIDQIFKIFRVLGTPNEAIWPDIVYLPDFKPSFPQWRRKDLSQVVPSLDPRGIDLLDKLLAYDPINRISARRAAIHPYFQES
# Test: as above
row,Binder,binding result
1,B9,no binding
2,B1,no binding
3,B2,no binding
4,B10,no binding
5,B3,no binding
6,B11,no binding
7,B4,no binding
8,B12,no binding
9,B13,no binding
10,B5,no binding
11,B6,no binding

# Molecular target: B6
# Test: as above
row,Binder,binding result
1,B8,no binding

# Molecular target: B3
# Test: as above
row,Binder,binding result
1,B8,no binding

# Molecular target: T4, Cdc2 (Homo sapiens (Human), UniProt P06493 1-297)
# T4 construct: bait construct and species not described
# T4 sequence (P06493 whole entry): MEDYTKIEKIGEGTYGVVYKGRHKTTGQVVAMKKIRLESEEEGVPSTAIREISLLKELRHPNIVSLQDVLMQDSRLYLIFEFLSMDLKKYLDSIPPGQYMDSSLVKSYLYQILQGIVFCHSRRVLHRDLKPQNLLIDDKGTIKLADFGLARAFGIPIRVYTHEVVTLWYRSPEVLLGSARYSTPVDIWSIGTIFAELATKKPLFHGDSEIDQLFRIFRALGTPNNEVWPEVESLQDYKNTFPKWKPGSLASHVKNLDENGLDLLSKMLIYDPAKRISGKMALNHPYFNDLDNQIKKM
# Test: as above
row,Binder,binding result
1,B9,no binding
2,B1,no binding
3,B2,no binding
4,B10,no binding
5,B3,no binding
6,B11,no binding
7,B4,no binding
8,B12,no binding
9,B13,no binding
10,B5,no binding
11,B6,no binding

# Molecular target: T5, Drosophila Cdc2c (Drosophila, UniProt P23573 1-314, limits assumed)
# T5 construct: bait construct not described
# T5 sequence (P23573 whole entry): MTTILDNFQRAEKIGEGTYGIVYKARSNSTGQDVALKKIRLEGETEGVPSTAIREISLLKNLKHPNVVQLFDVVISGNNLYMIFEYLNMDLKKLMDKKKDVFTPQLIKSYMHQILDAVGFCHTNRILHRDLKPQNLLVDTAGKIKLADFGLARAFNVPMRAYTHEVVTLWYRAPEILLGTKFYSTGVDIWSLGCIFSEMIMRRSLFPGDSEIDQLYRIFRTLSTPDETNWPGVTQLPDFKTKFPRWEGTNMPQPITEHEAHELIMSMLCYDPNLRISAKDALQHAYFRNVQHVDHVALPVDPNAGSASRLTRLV
# Test: as above
row,Binder,binding result
1,B9,no binding
2,B1,no binding
3,B2,no binding
4,B10,no binding
5,B3,no binding
6,B11,no binding
7,B4,no binding
8,B12,no binding
9,B13,no binding
10,B5,no binding
11,B6,no binding

# Molecular target: T6, Cdk6
# T6 construct: Bait strain named only on the sheet
# Test: as above
row,Binder,binding result
1,B9,no binding
2,B10,no binding
3,B11,no binding
4,B12,no binding
5,B13,no binding

# Molecular target: B8
# Test: as above
row,Binder,binding result
1,B9,no binding
2,B10,no binding
3,B11,no binding
4,B12,no binding
5,B13,no binding

# Molecular target: B2
# Test: as above
row,Binder,binding result
1,B8,no binding

# Molecular target: B5
# Test: as above
row,Binder,binding result
1,B8,no binding

# Molecular target: T1, Cdk4
# Test: as above
row,Binder,binding result
1,B9,no binding
2,B10,no binding
3,B11,no binding
4,B12,no binding
5,B13,no binding
